Measurements taken from patent US20200338203A1 (Bicycle, published 2020).
Numbered stars: 1 amine (or outer) side, 2 acyl side, 3 side chain; on linkers, the order of the positions; unused ones are H or OH. Bridge positions count the residues as written; N and C are the ends. Square brackets hold non-standard residues; d marks the D form. Ends that are not written are not given here. 1Nal = N[C@@H](Cc1cccc2ccccc12)C(=O)O; TBMB = c1c(C[*:1])cc(C[*:3])cc1C[*:2]; hArg = N=C(N)NCCCC[C@H](N)C(=O)O; Tle = CC(C)(C)[C@H](N)C(=O)O; Aib = CC(C)(N)C(=O)O; Sar = CNCC(=O)O

Assays:
[1] = target: T1, Human EphA2 (Ecto) (Human, UniProt P29317 24-537); assay: FP competition; competitor Compound 18
T1 construct: extracellular domain
Procedure: (§1) Peptides without a fluorescent tag were tested in competition with a peptide with a fluorescent tag and a known Kd (Table 2). Peptides were diluted to an appropriate concentration in assay buffer as described in the direct binding assay with a maximum of 5% DMSO, then serially diluted 1 in 2. Five μL of diluted peptide was added to the plate followed by 10 μL of human or mouse EphA2 (Table 1) at a fixed concentration which was dependent on the fluorescent peptide used (Table 2), then 10 μL fluorescent peptide added. Measurements were conducted as for the direct binding assay, however the gain was determined prior to the first measurement.

[2] = target: T1, Human EphA2 (Ecto); assay: FP competition; competitor Compound 66
Procedure: as §1

[3] = target: T1, Human EphA2 (Ecto); assay: FP competition; competitor Compound 18; remark: listed apart in the source

T1 sequence (P29317 24-537): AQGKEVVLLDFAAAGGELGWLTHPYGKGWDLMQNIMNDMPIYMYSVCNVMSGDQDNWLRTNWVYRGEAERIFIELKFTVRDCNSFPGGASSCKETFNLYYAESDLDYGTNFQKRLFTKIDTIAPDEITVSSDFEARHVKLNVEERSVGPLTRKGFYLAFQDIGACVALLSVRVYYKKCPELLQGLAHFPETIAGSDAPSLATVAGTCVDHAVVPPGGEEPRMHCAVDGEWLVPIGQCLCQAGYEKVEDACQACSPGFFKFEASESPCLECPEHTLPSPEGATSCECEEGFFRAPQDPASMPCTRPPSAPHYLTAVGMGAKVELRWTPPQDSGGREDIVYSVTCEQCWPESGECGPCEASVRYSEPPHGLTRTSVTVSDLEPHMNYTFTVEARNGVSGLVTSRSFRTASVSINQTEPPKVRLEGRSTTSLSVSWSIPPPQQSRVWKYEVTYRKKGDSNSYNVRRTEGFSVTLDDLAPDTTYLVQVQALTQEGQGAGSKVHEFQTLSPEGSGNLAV

Binder | Ki [1] [nM] | Ki [2] [nM] | Ki [3] [nM]
Ac-[Sar][Sar]A[dD]VTCP[1Nal]G[Aib]F[1Nal]CP[Tle]NR[Aib]GC (linker 7-14-21 via TBMB) [Compound 183] |  |  | 1.02
[Sar][Sar]ACPWGPF[1Nal]CPVNRPGC (linker 4-11-18 via TBMB) [Compound 96] | 31.3 | 68.1 | 
[Sar][Sar]ACP[1Nal]G[Aib]FWCP[Tle]NRPGC (linker 4-11-18 via TBMB) [Compound 126] | 15 | 19 | 
[Sar][Sar]ACPWGPAWCPVNRPGC (linker 4-11-18 via TBMB) [Compound 83] | 199 | 288 | 
[Sar][Sar]ACPWGPFWCPVNRPAC (linker 4-11-18 via TBMB) [Compound 111] | 108 | 238 | 
[Sar][Sar]ACPWGPFWCPVNRAGC (linker 4-11-18 via TBMB) [Compound 104] | 124 | 194 | 
ADVHCPWGPFWCPVNRPGCA (linker 5-12-19 via TBMB) [Compound 57] | 0.48 | 1.2 | 
ADVTCPWGPFWCPVNRPGCA (linker 5-12-19 via TBMB) [Compound 58] | 1.35 | 2.65 | 
ACPWGPFWCPVNRPGCA (linker 2-9-16 via TBMB) [Compound 69] | 107 | 70.1 | 
[Sar][Sar]ACP[1Nal]GPFWCP[Tle][dA]RPGC (linker 4-11-18 via TBMB) [Compound 129] | 23 | 15 | 
[Sar][Sar]ACP[1Nal]GPFWCPV[dA][hArg]PGC (linker 4-11-18 via TBMB) [Compound 133] | 14 | 3.7 | 
Ac-[Sar][Sar]A[dD]VTCP[1Nal]G[Aib]F[1Nal]CP[Tle]N[hArg]PGC (linker 7-14-21 via TBMB) [Compound 182] |  |  | 1.16
[Sar][Sar]ACPWG[Aib]F[1Nal]CPVNRPGC (linker 4-11-18 via TBMB) [Compound 123] | 63 | 46 | 
[Sar][Sar]ACP[1Nal]GPFWCPV[dA]RPGC (linker 4-11-18 via TBMB) [Compound 115] | 12.5 | 1.64 | 
[Sar][Sar]ACPWGPFWCPVNR[Aib]GC (linker 4-11-18 via TBMB) [Compound 110] | 75 | 140 | 
ARDDPCPWGPFWCPVNRPGCA (linker 6-13-20 via TBMB) [Compound 62] |  | 28 | 
[Sar][Sar]AC[Aib][1Nal]GPFWCPVNRP[dA]C (linker 4-11-18 via TBMB) [Compound 125] | 6.4 | 0.61 | 
[Sar][Sar]ACP[1Nal]G[Aib]FWCPV[dA]RPGC (linker 4-11-18 via TBMB) [Compound 127] | 40 | 33 | 
[Sar][Sar]AC[Aib][1Nal]G[Aib]FWCPVNR[Aib]GC (linker 4-11-18 via TBMB) [Compound 135] | 43 | 30 | 
[Sar][Sar]ACP[1Nal]GPFWCP[Tle]NR[Aib]GC (linker 4-11-18 via TBMB) [Compound 131] | 11 | 6.8 | 
[Sar][Sar]ACP[1Nal]GPFWCPVN[hArg]PGC (linker 4-11-18 via TBMB) [Compound 122] | 9.55 | 8 | 
[Sar][Sar]ACP[1Nal]G[Aib]FWCP[Tle]N[hArg]PGC (linker 4-11-18 via TBMB) [Compound 136] | 23 | 15 | 

Continued, values first:

Ki [1] [nM] | Ki [2] [nM] | Ki [3] [nM] | Binder
11.3 | 6.15 |  | AEGLPCPWGPFWCPVNRPGCA (linker 6-13-20 via TBMB) [Compound 55]
53 | 75 |  | [Sar][Sar]ACPWGPF[1Nal]CPV[dA]RPGC (linker 4-11-18 via TBMB) [Compound 117]
 | 77.4 |  | ACRVSPEYCPFGPVWCAGAAA (linker 2-9-16 via TBMB) [Compound 34]
2.95 | 3.2 |  | [Sar][Sar]ACP[1Nal]GPFWCPVNRP[dA]C (linker 4-11-18 via TBMB) [Compound 116]
 | 316 |  | ACPWGPAWCPVRDTNCA (linker 2-9-16 via TBMB) [Compound 42]
1.2 | 6.15 |  | [Sar][Sar]ACP[1Nal]GPFWCPVN[hArg]P[dA]C (linker 4-11-18 via TBMB) [Compound 134]
293 | 265 |  | ACPWGPFWCPVARPGC (printed: Sar2-ACPWGPFWCPVARPGC; TBMB on the 3 Cys) [Compound 101]
15 | 16 |  | [Sar][Sar]ACP[1Nal]G[Aib]FWCPVNRP[dA]C (linker 4-11-18 via TBMB) [Compound 128]
7.7 | 8.7 |  | [Sar][Sar]ACP[1Nal]GPFWCP[Tle]NRP[dA]C (linker 4-11-18 via TBMB) [Compound 132]
10 | 6.6 |  | [Sar][Sar]AC[Aib][1Nal]GPFWCPVNRPGC (linker 4-11-18 via TBMB) [Compound 113]
3.65 | 2 |  | [Sar][Sar]ACP[1Nal]GPFWCP[Tle]NRPGC (linker 4-11-18 via TBMB) [Compound 121]
1.4 | 0.98 |  | [Sar][Sar]ACP[1Nal]GPF[1Nal]CPVNRPGC (linker 4-11-18 via TBMB) [Compound 120]
